Our source for the protein stability index values is the supplement of paper PMC10724198.

The subject of series [1] is Saccharomyces cerevisiae. Kind of series: protein stability index of tFT-peptide fusion (C-terminal peptide) (PSI (0-1 scale)); higher = more stable (slower turnover). The method, then:
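MPS profiling in S. cerevisiae of the tFT-X12 degron library: putative degron peptides plus stable controls, 12 aa, fused to the C-terminus of a sfGFP-mCherry timer. Cells are FACS-sorted into 8 mCherry/sfGFP bins and deep-sequenced. PSI runs from 0 (unstable) to 1 (stable). Backgrounds are wild type, das1Δ and doa10Δ at 30 °C, and wild type, das1Δ, cdc34-1 and cdc53-1 at 37 °C; 2-3 technical replicates each.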

In series [2] the test system is Saccharomyces cerevisiae. Described as above. To be noted: genetic background: wild type; temperature: 30 C.
The mark [3] stands for this setting: genetic background: cdc34-1, temperature: 37 C.
Where [4] appears, read: genetic background: cdc53-1, temperature: 37 C.
The mark [5] stands for this setting: genetic background: das1 deletion, temperature: 30 C.
Setting [6] is: genetic background: das1 deletion, temperature: 37 C.
The mark [7] stands for this setting: genetic background: doa10 deletion, temperature: 30 C.
Setting [8] is: genetic background: wild type, temperature: 30 C.
Where [9] appears, read: genetic background: wild type, temperature: 37 C.

± gives the standard deviation of the averaged measurements.
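Also: PSI is a weighted mean of sequencing reads over stability bins, variants kept only with over 10 reads, mCherry proximal and sfGFP distal, peptide attached via GGGS linker.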

In the case of TRKKENERRKNG, the protein stability index in the series on Saccharomyces cerevisiae [1] (setting [3]) worked out at 0.653 ± 0.032; in the series with Saccharomyces cerevisiae [1] (setting [4]), 0.7213 ± 0.0044; with Saccharomyces cerevisiae [1] (setting [5]) it was 0.654 ± 0.015; in the series on Saccharomyces cerevisiae [1] (setting [6]) it was 0.71 ± 0.025; in the series on Saccharomyces cerevisiae [1] (setting [7]), 0.245 ± 0.013; in the series with Saccharomyces cerevisiae [1] (setting [8]) it was 0.278 ± 0.04. Further, the protein stability index in the series with Saccharomyces cerevisiae [1] (setting [9]) is 0.558 ± 0.012; with Saccharomyces cerevisiae [2] it was 0.422 ± 0.031.

For the sequence TSFCIFFVRFVI, the protein stability index came out at 0.374 ± 0.059 in the series with Saccharomyces cerevisiae [1] (setting [3]); 0.478 ± 0.021 in the series with Saccharomyces cerevisiae [1] (setting [4]); 0.365 ± 0.022 in the series on Saccharomyces cerevisiae [1] (setting [5]); 0.50904 ± 0.00041 in the series with Saccharomyces cerevisiae [1] (setting [6]); 0.277 ± 0.021 with Saccharomyces cerevisiae [1] (setting [7]); 0.289 ± 0.041 in the series on Saccharomyces cerevisiae [1] (setting [8]). Besides, the values for the protein stability index in the series on Saccharomyces cerevisiae [1] (setting [9]) and in the series on Saccharomyces cerevisiae [2] were 0.469 ± 0.015 and 0.322 ± 0.025, respectively.

TVETYNRARKAS: the protein stability index with Saccharomyces cerevisiae [1] (setting [3]) turned out to be 0.663 ± 0.0089; in the series on Saccharomyces cerevisiae [1] (setting [4]), 0.674 ± 0.014; with Saccharomyces cerevisiae [1] (setting [5]), 0.631 ± 0.038; in the series on Saccharomyces cerevisiae [1] (setting [6]) it was 0.7 ± 0.015; with Saccharomyces cerevisiae [1] (setting [7]) it was 0.218 ± 0.013; in the series on Saccharomyces cerevisiae [1] (setting [8]), 0.232 ± 0.039. The protein stability index in the series with Saccharomyces cerevisiae [1] (setting [9]) was found to be 0.412 ± 0.005; with Saccharomyces cerevisiae [2] it was 0.373 ± 0.075.

In the case of TVVIFLCSYITT, the protein stability index in the series on Saccharomyces cerevisiae [1] (setting [3]) was found to be 0.183 ± 0.06; in the series with Saccharomyces cerevisiae [1] (setting [4]) it was 0.24 ± 0.11; with Saccharomyces cerevisiae [1] (setting [5]), 0.139 ± 0.015; in the series on Saccharomyces cerevisiae [1] (setting [6]), 0.298 ± 0.008; with Saccharomyces cerevisiae [1] (setting [7]) it was 0.0829 ± 0.03; in the series on Saccharomyces cerevisiae [1] (setting [8]), 0.122 ± 0.04. Further, the protein stability index came out at 0.275 ± 0.019 in the series on Saccharomyces cerevisiae [1] (setting [9]) and 0.186 ± 0.0068 with Saccharomyces cerevisiae [2].

Regarding TYNVMFSPWRKA, the protein stability index with Saccharomyces cerevisiae [1] (setting [3]) stood at 0.604 ± 0.07; in the series on Saccharomyces cerevisiae [1] (setting [4]), 0.7064 ± 0.005; in the series on Saccharomyces cerevisiae [1] (setting [5]) it was 0.667 ± 0.032; with Saccharomyces cerevisiae [1] (setting [6]), 0.774 ± 0.0098; in the series on Saccharomyces cerevisiae [1] (setting [7]) it was 0.106 ± 0.007; with Saccharomyces cerevisiae [1] (setting [8]) it was 0.148 ± 0.034. In addition, the protein stability index in the series on Saccharomyces cerevisiae [1] (setting [9]) stood at 0.3808 ± 0.0022; in the series with Saccharomyces cerevisiae [2], 0.206 ± 0.011.

On to TYYPLNRSRFIG, for which the protein stability index was determined as 0.5858 ± 0.0048 in the series with Saccharomyces cerevisiae [1] (setting [3]); 0.7261 ± 0.0025 with Saccharomyces cerevisiae [1] (setting [4]); 0.635 ± 0.035 in the series with Saccharomyces cerevisiae [1] (setting [5]); 0.7616 ± 0.0049 in the series on Saccharomyces cerevisiae [1] (setting [6]); 0.108 ± 0.0073 in the series on Saccharomyces cerevisiae [1] (setting [7]); 0.139 ± 0.0058 in the series on Saccharomyces cerevisiae [1] (setting [8]). Further, the protein stability index in the series on Saccharomyces cerevisiae [1] (setting [9]) was determined as 0.241 ± 0.023; in the series with Saccharomyces cerevisiae [2], 0.277 ± 0.15.

For the sequence VAALFPPLRFLN, the protein stability index in the series on Saccharomyces cerevisiae [1] (setting [3]) stood at 0.554 ± 0.0075; in the series on Saccharomyces cerevisiae [1] (setting [4]), 0.711 ± 0.008; with Saccharomyces cerevisiae [1] (setting [5]), 0.653 ± 0.017; with Saccharomyces cerevisiae [1] (setting [6]), 0.734 ± 0.014; in the series on Saccharomyces cerevisiae [1] (setting [7]), 0.0912 ± 0.013; with Saccharomyces cerevisiae [1] (setting [8]), 0.122 ± 0.036. Also, the protein stability index with Saccharomyces cerevisiae [1] (setting [9]) is 0.224 ± 0.031; in the series with Saccharomyces cerevisiae [2], 0.286 ± 0.045.

Turning to VCFAWWGARCVA, the protein stability index in the series on Saccharomyces cerevisiae [1] (setting [3]) is 0.601 ± 0.01; in the series with Saccharomyces cerevisiae [1] (setting [4]) it was 0.619 ± 0.0063; in the series on Saccharomyces cerevisiae [1] (setting [5]) it was 0.468 ± 0.026; in the series on Saccharomyces cerevisiae [1] (setting [6]), 0.6475 ± 0.0032; with Saccharomyces cerevisiae [1] (setting [7]), 0.304 ± 0.024; in the series with Saccharomyces cerevisiae [1] (setting [8]) it was 0.357 ± 0.028. Also, the figures for the protein stability index with Saccharomyces cerevisiae [1] (setting [9]) and with Saccharomyces cerevisiae [2] were 0.534 ± 0.029 and 0.477 ± 0.023, respectively.

As for VCFFLFWCLSFS, the protein stability index in the series on Saccharomyces cerevisiae [1] (setting [3]) stood at 0.4239 ± 0.0013; with Saccharomyces cerevisiae [1] (setting [4]), 0.479 ± 0.021; in the series on Saccharomyces cerevisiae [1] (setting [5]), 0.343 ± 0.05; with Saccharomyces cerevisiae [1] (setting [6]) it was 0.4916 ± 0.00098; with Saccharomyces cerevisiae [1] (setting [7]), 0.348 ± 0.011; in the series with Saccharomyces cerevisiae [1] (setting [8]), 0.353 ± 0.025. Also, the protein stability index in the series on Saccharomyces cerevisiae [1] (setting [9]) is 0.476 ± 0.021; with Saccharomyces cerevisiae [2] it was 0.454 ± 0.034.

In the case of VCLCVIICSMSV, the protein stability index stood at 0.0201 ± 0.00092 with Saccharomyces cerevisiae [1] (setting [3]); 0.041 ± 0.019 with Saccharomyces cerevisiae [1] (setting [4]); 0.0324 ± 0.008 in the series on Saccharomyces cerevisiae [1] (setting [5]); 0.0699 ± 0.011 in the series with Saccharomyces cerevisiae [1] (setting [6]); 0.0265 ± 0.0033 in the series on Saccharomyces cerevisiae [1] (setting [7]); 0.0249 ± 0.0073 in the series with Saccharomyces cerevisiae [1] (setting [8]). For the same sequence, the protein stability index in the series on Saccharomyces cerevisiae [1] (setting [9]) came out at 0.0544 ± 0.01; in the series with Saccharomyces cerevisiae [2], 0.0535 ± 0.018.

Take VCQVCVCFLFWR: the protein stability index stood at 0.0977 ± 0.0034 in the series on Saccharomyces cerevisiae [1] (setting [3]); 0.0539 ± 0.0021 with Saccharomyces cerevisiae [1] (setting [4]); 0.145 ± 0.032 with Saccharomyces cerevisiae [1] (setting [5]); 0.181 ± 0.0077 with Saccharomyces cerevisiae [1] (setting [6]); 0.27 ± 0.018 with Saccharomyces cerevisiae [1] (setting [7]); 0.139 ± 0.016 with Saccharomyces cerevisiae [1] (setting [8]). For the same sequence, the figures for the protein stability index with Saccharomyces cerevisiae [1] (setting [9]) and in the series on Saccharomyces cerevisiae [2] were 0.169 ± 0.017 and 0.228 ± 0.043, respectively.

In the case of VCVVVLVGVVFL, the protein stability index in the series on Saccharomyces cerevisiae [1] (setting [3]) came out at 0.188 ± 0.031; in the series with Saccharomyces cerevisiae [1] (setting [4]), 0.3491 ± 0.0012; in the series with Saccharomyces cerevisiae [1] (setting [5]), 0.237 ± 0.02; in the series on Saccharomyces cerevisiae [1] (setting [6]), 0.3828 ± 0.0025; in the series with Saccharomyces cerevisiae [1] (setting [7]), 0.198 ± 0.0055; with Saccharomyces cerevisiae [1] (setting [8]), 0.24 ± 0.031. The results for the protein stability index in the series with Saccharomyces cerevisiae [1] (setting [9]) and in the series on Saccharomyces cerevisiae [2] were 0.314 ± 0.0088 and 0.3 ± 0.036, respectively.

VELRNCYLLVKA: the protein stability index turned out to be 0.204 ± 0.0059 with Saccharomyces cerevisiae [1] (setting [3]); 0.282 ± 0.013 with Saccharomyces cerevisiae [1] (setting [4]); 0.222 ± 0.037 with Saccharomyces cerevisiae [1] (setting [5]); 0.381 ± 0.013 in the series with Saccharomyces cerevisiae [1] (setting [6]); 0.178 ± 0.018 in the series with Saccharomyces cerevisiae [1] (setting [7]); 0.22 ± 0.032 in the series with Saccharomyces cerevisiae [1] (setting [8]). The protein stability index was found to be 0.34 ± 0.0065 in the series with Saccharomyces cerevisiae [1] (setting [9]) and 0.327 ± 0.037 in the series on Saccharomyces cerevisiae [2].

As for VFFLAFYFYRCF, the protein stability index in the series on Saccharomyces cerevisiae [1] (setting [3]) worked out at 0.405 ± 0.02; with Saccharomyces cerevisiae [1] (setting [4]), 0.464 ± 0.018; with Saccharomyces cerevisiae [1] (setting [5]) it was 0.416 ± 0.015; with Saccharomyces cerevisiae [1] (setting [6]), 0.545 ± 0.0085; with Saccharomyces cerevisiae [1] (setting [7]), 0.186 ± 0.0064; in the series on Saccharomyces cerevisiae [1] (setting [8]) it was 0.194 ± 0.029. Moreover, the protein stability index in the series on Saccharomyces cerevisiae [1] (setting [9]) was found to be 0.365 ± 0.0085; in the series on Saccharomyces cerevisiae [2] it was 0.262 ± 0.02.

On to VFMSVAPVSVLG, for which the protein stability index was found to be 0.115 ± 0.047 in the series with Saccharomyces cerevisiae [1] (setting [3]); 0.118 ± 0.045 in the series with Saccharomyces cerevisiae [1] (setting [4]); 0.198 ± 0.026 with Saccharomyces cerevisiae [1] (setting [5]); 0.2589 ± 0.00033 in the series on Saccharomyces cerevisiae [1] (setting [6]); 0.154 ± 0.016 in the series on Saccharomyces cerevisiae [1] (setting [7]); 0.184 ± 0.023 with Saccharomyces cerevisiae [1] (setting [8]). Also, the protein stability index with Saccharomyces cerevisiae [1] (setting [9]) worked out at 0.235 ± 0.0013; in the series with Saccharomyces cerevisiae [2] it was 0.29 ± 0.015.
